Data published in patent US20230068663A1 (University of Texas, published 2023).

Assays:
[1] = target: T1, LILRB2 chimeric receptor on LILRB2 reporter cells (extracellular domain of LILRB2 fused with … (UniProt Q8N423 22-460)); assay: flow cytometry, LILRB2 reporter cells
T1 construct: extracellular domain;domain: transmembrane/intracellular domains; associates with DAP12; also called LILRB2-expressing reporter cells

[2] = target: T2, full length human LILRB2 stably expressed on HEK293 cells (human, UniProt Q8N423 22-597); assay: competition flow cytometry, inhibition of HLA-G-His binding to HEK293 cells expressing LILRB2
T2 construct: whole, on cells; also called HEK293_LILRB2
Description: FIG. 33. […] All incubations were performed for 30 minutes at 4° C. Data shown is averaged geometric mean of fluorescence intensity ± standard error of the mean (s.e.m.) from duplicate samples acquired in a flow cytometer (BD FACS Celesta).

LILRB2-His antigen = target: T3, LILRB2-His antigen (UniProt Q8N423 22-460, limits assumed); assay: indirect ELISA, coated LILRB2-His
T3 construct: Coated on ELISA plates; also used for phage panning; also called LILRB2 antigen; not shown: His tag
Description: ELISA binding EC of LILRB2 antibodies. The ELISA binding EC₅₀ of these 24 antibodies were measured by indirect ELISA. […] After incubation, HRP-conjugated goat anti-human Fc secondary antibody was incubated with the plates. The TMB substrate was added for color development and measurement of absorbance at 450 nm.

[3] = target: T2, full length human LILRB2 stably …; assay: competition flow cytometry, inhibition of SEMA4A-hFc-AF647 binding to HEK293_LILRB2 cells
Description: FIG. 34. […] Incubation was performed for 30 minutes at 4° C. Data shown is averaged geometric mean of fluorescence intensity ± standard error of the mean (s.e.m.) from duplicate samples acquired in a flow cytometer (BD FACS Celesta).

[4] = target: T4, LILRA1 on reporter cells (extracellular domain) (UniProt O75019 17-461, limits assumed); assay: flow cytometry, reporter cells
T4 construct: extracellular domain
Description: (§1) FIG. 29. Binding of LILRB2 antibodies on reporter cell line expressing ectodomain of LILR family proteins on cell surface. Bound antibodies were detected with anti-human Fc-specific secondary antibody (2nd Ab) conjugated to AF647. […] All incubations were performed for 30 minutes at 4° C. Data shown is mean fluorescence intensity after sample acquisition in flow cytometer.

LILRA3 = target: T5, LILRA3; assay: flow cytometry, reporter cells
T5 construct: also called LILRA3 reporter cells; not shown: transmembrane/intracellular domains of PILRb, the display part of the chimeric reporter receptor
Description: as §1

LILRA6 = target: T6, LILRA6; assay: flow cytometry, reporter cells
T6 construct: also called LILRA6 reporter cells
Description: as §1

LILRA2 = target: T7, LILRA2; assay: flow cytometry, reporter cells
T7 construct: also called LILRA2 reporter cells; not shown: transmembrane/intracellular domains of PILRb, the display part of the chimeric reporter receptor
Description: as §1

LILRB1 = target: T8, LILRB1; assay: flow cytometry, reporter cells
T8 construct: also called LILRB1 reporter cells; not shown: transmembrane/intracellular domains of PILRb, the display part of the chimeric reporter receptor
Description: as §1

LILRA5 = target: T9, LILRA5; assay: flow cytometry, reporter cells
T9 construct: also called LILRA5 reporter cells
Description: as §1

LILRB4 = target: T10, LILRB4; assay: flow cytometry, reporter cells
T10 construct: also called LILRB4 reporter cells; not shown: transmembrane/intracellular domains of PILRb, the display part of the chimeric reporter receptor
Description: as §1

LAIR1 on reporter cells = target: T11, LAIR1 on reporter cells (UniProt Q6GTX8 22-165, limits assumed); assay: flow cytometry, reporter cells
T11 sequence (looked up): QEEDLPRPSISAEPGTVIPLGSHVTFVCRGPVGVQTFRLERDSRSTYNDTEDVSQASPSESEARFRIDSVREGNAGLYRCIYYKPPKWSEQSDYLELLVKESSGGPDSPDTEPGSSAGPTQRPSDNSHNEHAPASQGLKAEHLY
Description: as §1

[5] = target: T1, LILRB2 chimeric receptor on LILRB2 …; assay: flow cytometry, reporter cells
Description: as §1

LILRB5 = target: T12, LILRB5; assay: flow cytometry, reporter cells
T12 construct: also called LILRB5 reporter cells; not shown: transmembrane/intracellular domains of PILRb, the display part of the chimeric reporter receptor
Description: as §1

LILRA4 = target: T13, LILRA4; assay: flow cytometry, reporter cells
T13 construct: also called LILRA4 reporter cells
Description: as §1

LILRB3 = target: T14, LILRB3; assay: flow cytometry, reporter cells
T14 construct: also called LILRB3 reporter cells; not shown: transmembrane/intracellular domains of PILRb, the display part of the chimeric reporter receptor
Description: as §1

[6] = target: T1, LILRB2 chimeric receptor on LILRB2 …; assay: flow cytometry on LILRB2 reporter cells, APC anti-human IgG
Source text: FIGS. 1A-C. Screening specific monoclonal antibodies for LILRB2. […] Binding of monoclonal antibodies was screened using flow cytometer on LILRB2 reporter cells. Bound antibodies were detected with Allophycocyanin (APC)-labeled goat anti-human IgG secondary antibody. (FIG. 1B) Quantification of binding ability of monoclonal antibodies to LILRB2 reporter cells.
Screening specific monoclonal antibodies for LILRB2. The inventors employed a stable reporter cell system to detect the binding ability of selected monoclonal antibodies to LILRB2. In this chimeric receptor reporter system, the extracellular domain (ECD) of LILRB2 is fused with transmembrane/intracellular domains of PILRb that associates with the adaptor protein DAP12 containing an immunoreceptor tyrosine-based activation motif. 27 monoclonal antibodies were screened. The LILRB2 reporter cells were incubated with selected monoclonal antibody, then labeled with (APC) goat anti-human IgG secondary antibody. […] The inventors generated LILRBAs and LILRBs reporters stably transduced with each receptor's extracellular domain (ECD).

T12 sequence (chain, as listed by the source limits assumed): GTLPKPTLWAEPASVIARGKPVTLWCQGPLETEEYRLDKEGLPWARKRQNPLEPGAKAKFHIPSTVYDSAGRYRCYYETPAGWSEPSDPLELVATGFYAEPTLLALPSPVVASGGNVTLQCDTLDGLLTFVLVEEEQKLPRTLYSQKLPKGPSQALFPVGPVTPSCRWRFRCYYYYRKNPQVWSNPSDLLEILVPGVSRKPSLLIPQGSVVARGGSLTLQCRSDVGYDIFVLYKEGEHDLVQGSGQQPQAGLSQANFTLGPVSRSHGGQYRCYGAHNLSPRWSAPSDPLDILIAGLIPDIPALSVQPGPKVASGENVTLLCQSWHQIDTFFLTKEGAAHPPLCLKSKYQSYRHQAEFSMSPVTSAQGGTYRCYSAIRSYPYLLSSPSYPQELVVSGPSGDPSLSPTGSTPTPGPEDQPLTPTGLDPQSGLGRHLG
T5 sequence (chain, as listed by the source limits assumed): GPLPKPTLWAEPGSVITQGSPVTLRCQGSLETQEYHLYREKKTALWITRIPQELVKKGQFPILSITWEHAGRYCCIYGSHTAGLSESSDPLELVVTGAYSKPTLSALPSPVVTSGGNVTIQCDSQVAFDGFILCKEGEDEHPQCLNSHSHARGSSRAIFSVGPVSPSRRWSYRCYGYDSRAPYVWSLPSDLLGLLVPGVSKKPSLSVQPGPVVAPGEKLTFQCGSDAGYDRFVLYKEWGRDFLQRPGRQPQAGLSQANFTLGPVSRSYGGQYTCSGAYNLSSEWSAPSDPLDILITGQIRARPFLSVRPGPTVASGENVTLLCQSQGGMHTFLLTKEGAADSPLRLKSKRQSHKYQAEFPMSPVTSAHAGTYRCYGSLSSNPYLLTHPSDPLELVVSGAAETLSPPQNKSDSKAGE
T9 sequence (chain, as listed by the source limits assumed): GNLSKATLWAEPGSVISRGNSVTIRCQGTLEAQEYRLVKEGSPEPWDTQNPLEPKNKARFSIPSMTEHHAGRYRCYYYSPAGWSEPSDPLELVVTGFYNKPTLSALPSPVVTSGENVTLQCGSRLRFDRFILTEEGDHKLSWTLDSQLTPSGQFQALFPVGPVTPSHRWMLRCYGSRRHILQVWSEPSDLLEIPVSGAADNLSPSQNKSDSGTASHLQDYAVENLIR
T13 sequence (chain, as listed by the source limits assumed): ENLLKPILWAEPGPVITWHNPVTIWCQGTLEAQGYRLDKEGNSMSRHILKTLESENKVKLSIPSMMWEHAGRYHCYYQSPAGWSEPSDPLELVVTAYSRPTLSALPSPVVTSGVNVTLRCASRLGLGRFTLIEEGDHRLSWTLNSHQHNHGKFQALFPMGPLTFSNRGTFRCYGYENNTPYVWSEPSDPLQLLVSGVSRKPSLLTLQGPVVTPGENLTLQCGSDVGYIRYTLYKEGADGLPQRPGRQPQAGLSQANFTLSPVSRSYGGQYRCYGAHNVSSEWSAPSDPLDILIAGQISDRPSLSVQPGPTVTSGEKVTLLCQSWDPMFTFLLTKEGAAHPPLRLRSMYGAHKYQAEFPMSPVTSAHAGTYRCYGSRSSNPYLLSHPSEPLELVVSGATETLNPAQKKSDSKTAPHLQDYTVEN
T4 sequence (O75019 17-461 limits assumed): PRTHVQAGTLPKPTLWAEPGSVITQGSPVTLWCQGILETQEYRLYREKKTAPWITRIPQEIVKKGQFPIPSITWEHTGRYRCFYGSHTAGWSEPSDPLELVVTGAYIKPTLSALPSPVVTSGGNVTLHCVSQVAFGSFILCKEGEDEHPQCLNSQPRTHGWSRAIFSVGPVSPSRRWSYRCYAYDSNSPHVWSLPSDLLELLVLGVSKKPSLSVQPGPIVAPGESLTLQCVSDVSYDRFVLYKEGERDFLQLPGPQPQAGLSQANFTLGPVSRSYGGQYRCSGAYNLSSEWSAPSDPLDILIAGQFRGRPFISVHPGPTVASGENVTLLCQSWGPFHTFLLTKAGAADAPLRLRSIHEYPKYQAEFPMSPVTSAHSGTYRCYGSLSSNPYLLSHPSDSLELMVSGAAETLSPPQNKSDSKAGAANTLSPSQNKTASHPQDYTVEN
T8 sequence (chain, as listed by the source limits assumed): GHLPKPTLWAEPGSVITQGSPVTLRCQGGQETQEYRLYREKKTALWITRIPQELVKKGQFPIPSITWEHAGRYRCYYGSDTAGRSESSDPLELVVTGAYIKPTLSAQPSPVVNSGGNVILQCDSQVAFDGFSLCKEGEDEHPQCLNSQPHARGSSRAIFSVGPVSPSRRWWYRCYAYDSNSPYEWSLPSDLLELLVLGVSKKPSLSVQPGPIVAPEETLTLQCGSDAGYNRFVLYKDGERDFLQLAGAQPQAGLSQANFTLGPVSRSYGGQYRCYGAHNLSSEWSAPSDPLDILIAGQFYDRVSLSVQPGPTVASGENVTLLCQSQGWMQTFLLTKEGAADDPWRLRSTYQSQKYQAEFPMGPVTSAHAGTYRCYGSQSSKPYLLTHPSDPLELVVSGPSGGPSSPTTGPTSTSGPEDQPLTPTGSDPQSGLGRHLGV
T7 sequence (chain, as listed by the source limits assumed): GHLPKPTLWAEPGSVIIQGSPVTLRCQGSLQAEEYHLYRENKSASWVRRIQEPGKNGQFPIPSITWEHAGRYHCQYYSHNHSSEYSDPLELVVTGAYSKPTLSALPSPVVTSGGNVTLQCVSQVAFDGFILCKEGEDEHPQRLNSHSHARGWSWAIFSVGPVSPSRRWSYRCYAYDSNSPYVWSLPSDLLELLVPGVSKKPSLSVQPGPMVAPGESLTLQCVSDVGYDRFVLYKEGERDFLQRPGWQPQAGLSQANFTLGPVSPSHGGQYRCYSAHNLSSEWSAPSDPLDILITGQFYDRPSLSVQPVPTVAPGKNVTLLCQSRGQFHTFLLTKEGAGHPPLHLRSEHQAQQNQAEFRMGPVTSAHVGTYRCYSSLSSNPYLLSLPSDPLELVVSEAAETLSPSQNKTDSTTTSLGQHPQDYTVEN
T6 sequence (chain, as listed by the source limits assumed): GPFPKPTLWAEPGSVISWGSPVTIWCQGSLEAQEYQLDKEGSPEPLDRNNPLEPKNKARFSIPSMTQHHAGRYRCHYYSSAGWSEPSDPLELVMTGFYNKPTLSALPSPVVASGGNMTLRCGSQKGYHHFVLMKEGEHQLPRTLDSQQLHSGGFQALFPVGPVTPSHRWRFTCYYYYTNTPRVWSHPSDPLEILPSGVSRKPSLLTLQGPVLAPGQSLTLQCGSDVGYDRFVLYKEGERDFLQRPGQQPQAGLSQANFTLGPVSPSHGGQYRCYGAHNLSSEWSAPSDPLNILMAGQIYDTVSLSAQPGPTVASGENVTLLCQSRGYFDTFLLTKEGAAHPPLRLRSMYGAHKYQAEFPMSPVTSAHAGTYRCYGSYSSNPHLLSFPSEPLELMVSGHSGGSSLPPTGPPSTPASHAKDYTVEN

B1: B2-17 (antibody, V domains shown)
VH: EVQLLDSGPRLLKPSETLSLTCGVSGVSTSSTHWWSWVRQTPGKGLEWIGEILHNGNTNSNPSLKSRVSMSIDKSRNQFSLQLKSMTAADTAVYYCASASPNWGASGAFDAWAQGTMVTVSS
VL: QSVLTQPPSASATPGQRVTISCSGSSSNIGSNPVNWYQQVPGMAPELVMYSDNQRPSGVPDRFSGSNSGTSASLAISGLQSEDEADYYCSTWDDSLNGLVFGTGTKVTVL
notes: also called B2-17_HC; B2-17_LC
Q: Which “% of cells anti-hIgG APC+” value [1] does the source give for B1 here?
A: 94.3%

Q: And the IC50 [2]?
A: 0.209 µg/mL

Q: What about the EC50 (LILRB2-His antigen) of the same binder?
A: 24.6 nM

Q: And the IC50 [3]?
A: 0.657 µg/mL

Q: What about the MFI [4] of the same binder?
A: 11

Q: Does B1 bind [4]?
A: no binding

Q: And the MFI (LILRA3)?
A: 10

Q: Does B1 bind (LILRA3)?
A: no binding

Q: What about the MFI (LILRA6) of the same binder?
A: 11

Q: Does B1 bind (LILRA6)?
A: no binding

Q: And the MFI (LILRA2)?
A: 10

Q: Does B1 bind (LILRA2)?
A: no binding

Q: And the MFI (LILRB1)?
A: 9

Q: Does B1 bind (LILRB1)?
A: no binding

Q: What about the MFI (LILRA5) of the same binder?
A: 10

Q: Does B1 bind (LILRA5)?
A: no binding

Q: What about the MFI (LILRB4) of the same binder?
A: 13

Q: Does B1 bind (LILRB4)?
A: no binding

Q: And the MFI (LAIR1 on reporter cells)?
A: 23

Q: Does B1 bind (LAIR1 on reporter cells)?
A: no binding

Q: And the MFI [5]?
A: 1100

Q: And the MFI (LILRB5)?
A: 10

Q: Does B1 bind (LILRB5)?
A: no binding

Q: What about the MFI (LILRA4) of the same binder?
A: 10

Q: Does B1 bind (LILRA4)?
A: no binding

Q: What about the MFI (LILRB3) of the same binder?
A: 10

Q: Does B1 bind (LILRB3)?
A: no binding

Q: And the “percent of LILRB2 reporter cells labeled” value [6]?
A: > 95%
